Measurements from patent US20230303674A1 (BETH ISRAEL DEACONESS MEDICAL CENTER, published 2023).
Ends that are not written are not given here.

B1: human α-CGRP 19-37-COOH (peptide)
peptide: SGGVVKNNFVPTNVGSKAF-OH
notes: free C-terminal carboxyl, not amidated; also called 19-37 (not amidated at the C-terminus)
B2: human α-CGRP 1-36-COOH (peptide)
peptide: ACDTATCVTHRLAGLLSRSGGVVKNNFVPTNVGSKA-OH
modifications: ends and bridges not checked
notes: free C-terminal carboxyl, not amidated; also called 1-36 (not amidated at the C-terminus)

Legend:
[1] = biological target: antibody G1 Fab fragment; assay: Biacore competition: G1 Fab (50 nM) pre-incubated 1 h with 10 µM competing peptide, flowed over N-biotinylated human α-CGRP on SA chip
antibody G1 Fab fragment, sequence (VH, as listed by the source, chain 1 of 2): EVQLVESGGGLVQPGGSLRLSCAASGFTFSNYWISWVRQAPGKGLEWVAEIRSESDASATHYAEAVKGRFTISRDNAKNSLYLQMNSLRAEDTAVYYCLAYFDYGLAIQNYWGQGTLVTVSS
antibody G1 Fab fragment, sequence (VL, as listed by the source, chain 2 of 2): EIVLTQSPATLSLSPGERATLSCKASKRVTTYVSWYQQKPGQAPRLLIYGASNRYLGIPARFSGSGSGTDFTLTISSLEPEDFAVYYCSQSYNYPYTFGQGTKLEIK
Description: (§1) Y axis represents percentage of binding blocked by the presence of the competing peptide compared with the binding in the absence of the competing peptide.
(§2) All these peptides are amidated at the C-terminus.

[2] = biological target: antibody G1 Fab fragment; assay: Biacore competition: G1 Fab (50 nM) pre-incubated with competing peptide, flowed over human α-CGRP on SA chip
Description: as §1, §2

[3] = biological target: antibody G1 Fab fragment; assay: Biacore, 50 nM G1 Fab with 10 µM peptide, over human α-CGRP on chip
Description: as §1, §2

Row | Binder | % Binding Blocked [1] | binding result [2] | % of binding blocked [3]
1 | B1 | 83.3% |  | 
2 | ACDTATCVTHRLA-OH (ends and bridges not checked, not amidated) [human α-CGRP 1-13-COOH] |  | no binding (tested: 10 µM) | 
3 | ACDTATCVTHRLAGLLSRS-OH (ends and bridges not checked, not amidated) [human α-CGRP 1-19-COOH] |  | no binding (tested: 10 µM) | 
4 | B2 | 40.6% |  | ~40%
